Measured values published in patent US20090155236A1, “Peptide sequence for modulation of delta protein kinase c” (NATIONAL INSTITUES OF HEALTH (NIH), U.S. DEPT OF HEALTH AND …, priority 2004, published 2009).

How the values were obtained:
[1] = biological target: recombinant full-length delta PKC (rat); test: ELISA, presence of calcium
[2] = biological target: recombinant full-length delta PKC (rat); test: ELISA, absence of calcium
[3] = biological target: annexin V protein (human) (UniProt P08758); test: ELISA, annexin V immobilised, absence of calcium
Chain of annexin V protein (human) (P08758 2-320 limits assumed): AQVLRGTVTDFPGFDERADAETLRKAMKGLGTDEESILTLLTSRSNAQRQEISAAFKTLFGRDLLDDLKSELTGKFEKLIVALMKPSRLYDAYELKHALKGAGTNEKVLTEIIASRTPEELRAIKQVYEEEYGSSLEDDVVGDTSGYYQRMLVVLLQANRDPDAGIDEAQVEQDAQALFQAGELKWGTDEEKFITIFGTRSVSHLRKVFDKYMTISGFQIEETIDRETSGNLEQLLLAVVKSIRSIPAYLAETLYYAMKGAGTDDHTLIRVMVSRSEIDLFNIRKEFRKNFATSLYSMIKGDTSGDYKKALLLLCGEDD

[4] = biological target: annexin V protein (human) (UniProt P08758); test: ELISA, annexin V immobilised, presence of calcium

| Substance | percent binding [1] | percent binding [2] | percent binding [3] | percent binding [4] |
| --- | --- | --- | --- | --- |
| annexin V protein (from UniProt P08758 2-320) | 100% | 75% | – | – |
| delta V1 PKC (from UniProt P09215 1-160) | – | – | 55% | 100% |
